# Reference: patent US20060088908A1 (Pieris, published 2006)
# T1: recombinant human cytokine interleukin-8 (Promocell) (human, UniProt P10145 23-99, biotin groups on lysine residues (NHS-SS-Biotin) in the ELISA; digoxigenin groups (DIG-NHS) in the colony screening)
# T1 construct: also called IL-8
# T1 sequence: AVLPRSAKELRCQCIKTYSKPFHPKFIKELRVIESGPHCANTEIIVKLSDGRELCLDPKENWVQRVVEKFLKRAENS
# B1: hNGAL mutein RFY-C with C-terminal Strep-Tag II (phNGAL15 derivative, purified) (designed binder, not shown: small tags and cut ends)
# chain: QDSTSDLIPAPPLSKVPLQQNFQDNQFQGKWYLVGLAGNGIHRLDNVPPNMYATIYELKEDKSYNVTSVDFLMKKCPYFIRTFVPGSQPGEFTLGNIKSYPFLTSFLVRVVSTNYNQHAMVFFKNVPRNYEEFKITIYGRTKELPSELKENFIRFSKSLGLPENHIVFPVPIDQCIDG
# B2: hNGAL mutein RFY-E with C-terminal Strep-Tag II (phNGAL15 derivative, purified) (designed binder, not shown: small tags and cut ends)
# chain: QDSTSDLIPAPPLSKVPLQQNFQDNQFQGKWYLVGLAGNGITRVDTLPSRMYATIYELKEDKSYNVTSVPFMGKKCKYKIRTFVPGSQPGEFTLGNIKSYMSNTSFLVRVVSTNYNQHAMVFFKQVHKNPESFKITIYGRTKELPSELKENFIRFSKSLGLPENHIVFPVPIDQCIDG
# B3: biotinylated synthetic thrombospondin peptide from the cell binding domain of human Thrombospondin1 (peptide)
# peptide: RFYVVMWKXXK
# modifications: Aca-Aca (amino caproic acid) after Lys8; C-terminal Lys-Biotin
# notes: Immobilised through its C-terminal biotin on avidin (ELISA) or streptavidin chip (SPR)
# B4: hNGAL mutein N4 with C-terminal Strep-Tag II (phNGAL15 derivative, purified) (designed binder, not shown: small tags and cut ends)
# chain: QDSTSDLIPAPPLSKVPLQQNFQDNQFQGKWYLVGLAGNDIYRADSLPGLMYATIYELKEDKSYNVTSVVFYDKKCVYSIRTFVPGSQPGEFTLGNIKSYEAVTSFLVRVVSTNYNQHAMVFFKDVRPNSEEFKITIYGRTKELPSELKENFIRFSKSLGLPENHIVFPVPIDQCIDG
# Assays:
# [1] = molecular target: streptavidin of the streptavidin-coated sensor chip SA (BIACORE) (UniProt P22629 37-163, limits assumed); assay: SPR, BIAcore X, streptavidin-coated sensor chip SA
# streptavidin of the streptavidin-coated sensor chip SA (BIACORE), sequence (P22629 37-163 limits assumed): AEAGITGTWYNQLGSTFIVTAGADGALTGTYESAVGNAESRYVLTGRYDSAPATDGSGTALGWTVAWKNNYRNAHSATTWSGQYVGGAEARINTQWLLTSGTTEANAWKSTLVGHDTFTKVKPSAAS
# [2] = molecular target: B3; assay: SPR, BIAcore X, steady state, biotinylated peptide on sensor chip SA
# Experimental: The binding affinity of the hNGAL muteins to the thrombospondin peptide SEQ ID NO: 18 was determined by surface plasmon resonance (SPR) using the BIAcore X system (BIACORE). First 35 μl of the biotinylated thrombospondin peptide at a concentration of 1 μg/ml (prepared by mixing 1 μl of a 200 μg/ml peptide solution in DMF with 199 μl HBS buffer containing 150 mM NaCl, 10 mM HEPES pH 7.4, 3 mM EDTA) was immobilized to the surface of one flow channel of a streptavidin-coated sensor chip SA (BIACORE) according to the instructions of the manufacturer, resulting in an amount of ca. 400 response units (RU). Binding curves of the hNGAL muteins were then measured by applying 35 μl of each purified muteins from Example 9 in HBS buffer at concentrations between 500 nM and 25 nM using HBS-EP (HBS containing 0.005% Surfactant P20) as a running buffer and a continuous flowrate of 5 μl/min.
# Steady state resonance values were measured at the end of the injection phase for the channel with the immobilized thrombospondin peptide for each protein concentration applied. Only negligible buffer effects were detected in the second channel of the sensor chip, which served as a control. These values were directly plotted against the concentration of the hNGAL mutein. […]
# [3] = molecular target: B3; assay: ELISA, apparent KD, biotinylated peptide on avidin-coated plate, anti-strepII-antibody-HRP
# Experimental: For the detection of binding in an ELISA (Enzyme-linked Immunosorbent Assay) the wells of a microtiter plate (Maxisorb, Nunc) were filled each with 50 μl of a 50 μg/ml solution of Avidin (Fluka) in PBS and were incubated over night at room temperature (RT). After washing three times with PBST, 50 μl of a 1 μM solution of the biotinylated thrombospondin peptide SEQ ID NO:18 in PBST were filled into the wells and the peptide was immobilized via complex formation between biotin and the preadsorbed avidin. After incubation for one hour the solution was removed and the wells of the microtiter plate were washed three times with PBST. In order to saturate unspecific binding sites, the wells were filled with 100 μl of 4% w/v BSA in PBST and incubated for one hour at RT, followed by three times washing with PBST.
# Then a dilution series of the muteins from Example 9 was prepared, starting from 100 nM concentration, and followed by 1 hour incubation at RT. As a control for unspecific binding to avidin, a similar dilution series of hNGAL and its muteins was applied to wells where the thrombospondin peptide had been omitted. After washing three times with PBST, Anti-strepII-antibody-HRP-conjugate (IBA), diluted 1:8000 with PBST, was applied to the wells. Incubation was performed for 1 hour at RT and followed by washing three times with PBST and twice with PBS. […]
# [4] = molecular target: T2, original hNGAL with C-terminal Strep-Tag II (encoded by phNGAL15, purified) (human, UniProt P80188 21-198); assay: ELISA: biotinylated thrombospondin peptide on avidin-coated wells, hNGAL titrated, anti-strepII-antibody-HRP detection, A450
# T2 construct: mature
# Experimental: For the detection of binding in an ELISA (Enzyme-linked Immunosorbent Assay) the wells of a microtiter plate (Maxisorb, Nunc) were filled each with 50 μl of a 50 μg/ml solution of Avidin (Fluka) in PBS and were incubated over night at room temperature (RT). After washing three times with PBST, 50 μl of a 1 μM solution of the biotinylated thrombospondin peptide SEQ ID NO:18 in PBST were filled into the wells and the peptide was immobilized via complex formation between biotin and the preadsorbed avidin. After incubation for one hour the solution was removed and the wells of the microtiter plate were washed three times with PBST. In order to saturate unspecific binding sites, the wells were filled with 100 μl of 4% w/v BSA in PBST and incubated for one hour at RT, followed by three times washing with PBST. […]
# (§1) Detection of bound hNGAL muteins was accomplished using 3,3′,5,5′-tetramethylbenzidine and H₂O₂ as substrates for horseradish-peroxidase. For this purpose, 100 μl of a ready-to-use HRP-substrate solution (Biochem Immunosystems) was filled into the wells and the colour development was stopped after a few minutes by adding 100 μl of 0.3 M sulphuric acid. Product formation was measured via the endpoint absorption at 450 nm in a SpectraMax 250 photometer (Molecular Devices).
# [5] = molecular target: T1, recombinant human cytokine …; assay: ELISA, apparent KD, biotinylated IL-8 on avidin-coated plate, anti-strepII-antibody-HRP
# Experimental: (§2) For the detection of binding in an ELISA experiment two rows (12 wells each) of a 96 microtiter plate (Maxisorb, Nunc) were coated with 50 μl of a 50 μg/ml solution of Avidin (Fluka) in PBS overnight at 4° C. After washing three times with PBST, one row was treated with 50 μl/well of a 1 μM solution of biotinylated IL-8 in PBST, whereas the second row was incubated with PBST as a control. After 1 hour at RT, all wells were washed three times with PBST and unspecific binding sites were saturated with 100 μl of 4% w/v skimmed milk powder in PBST for 1 hour at RT.
# (§3) As a control for unspecific binding to avidin, a similar dilution series of the mutein N4 was applied to wells where the IL-8 had been omitted. Complex formation was allowed for 1 hour at RT, followed by three washes with PBST and incubation at RT for 1 hour with anti-strepII-antibody-HRP-conjugate (IBA) diluted 1:8000 in PBST.
# as §1, with “mutein N4” for “hNGAL muteins”, “purpose, all wells were filled with” for “purpose,”, “Immunosystems). The” for “Immunosystems) was filled into the wells and the”, “via” for “via the”
# [6] = molecular target: Avidin (Fluka) (UniProt P02701 25-152); assay: ELISA control without IL-8: avidin-coated wells only, mutein N4 titrated, anti-strepII-antibody-HRP detection, OD450
# Avidin (Fluka), sequence (P02701 25-152 limits assumed): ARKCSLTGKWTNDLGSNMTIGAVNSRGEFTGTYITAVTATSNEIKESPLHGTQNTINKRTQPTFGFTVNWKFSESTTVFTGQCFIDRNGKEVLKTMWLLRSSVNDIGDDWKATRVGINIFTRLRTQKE
# Experimental: as §2, §3
# as §1, with “mutein N4” for “hNGAL muteins”, “purpose, all wells were filled with” for “purpose,”, “Immunosystems). The” for “Immunosystems) was filled into the wells and the”, “via” for “via the”
Binder,binding result [1],Kd [2],Kd [3],binding result [4],Kd [5],binding result [6]
B1,no binding,106 nM,4.6 nM,–,–,–
B2,no binding,107 nM,8.2 nM,–,–,–
B3,–,–,–,no binding (tested: 200 nM),–,–
B4,–,–,–,–,300 nM,no binding (tested: 1000 nM)
